Measured values published in PMC9482650, “Quantitative fragmentomics allow affinity mapping of interactomes” (Nature Communications, 2022).
One block for each binder: values may come before it.

Legend:
Assay in all cases: holdup assay
Design in all cases: key: below the threshold = too weak to quantify, mostly under pKd 3.1 to 4
[1] = biological target: T1, MPP7, Q5T2T1
T1 sequence (Q5T2T1 134-230, limits assumed, looked up): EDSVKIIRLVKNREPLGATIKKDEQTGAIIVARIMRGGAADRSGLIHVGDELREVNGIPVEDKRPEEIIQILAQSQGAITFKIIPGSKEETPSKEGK

[2] = biological target: IL16_1, Q14005
[3] = biological target: DLG4_1, P78352
[4] = biological target: T2, LRRC7, Q96NW7
T2 sequence (Q96NW7 1440-1537, limits assumed, looked up): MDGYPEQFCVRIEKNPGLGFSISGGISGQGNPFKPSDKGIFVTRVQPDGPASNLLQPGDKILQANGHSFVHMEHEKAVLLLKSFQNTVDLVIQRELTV

[5] = biological target: T3, NHERF3_4, Q5T2W1
T3 sequence (Q5T2W1 373-468, limits assumed, looked up): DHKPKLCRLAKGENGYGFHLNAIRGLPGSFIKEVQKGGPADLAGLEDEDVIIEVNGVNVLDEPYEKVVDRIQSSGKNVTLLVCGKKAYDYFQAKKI

[6] = biological target: Inadl_2, Q8NI35
[7] = biological target: T4, GRIP1_3, Q9Y3R0
T4 sequence (Q9Y3R0 247-346, limits assumed, looked up): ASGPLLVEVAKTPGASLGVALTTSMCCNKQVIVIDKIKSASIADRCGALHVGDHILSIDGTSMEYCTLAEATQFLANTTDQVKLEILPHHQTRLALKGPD

[8] = biological target: T5, PCLO, Q9Y6V0
T5 sequence (Q9Y6V0 4491-4600, limits assumed, looked up): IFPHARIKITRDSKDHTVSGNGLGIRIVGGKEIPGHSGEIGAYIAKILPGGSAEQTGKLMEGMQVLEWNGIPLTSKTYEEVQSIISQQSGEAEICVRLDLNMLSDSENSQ

[9] = biological target: MAGI1_2, Q96QZ7
[10] = biological target: T6, PDZRN3_1, Q9UPQ7
T6 sequence (Q9UPQ7 244-349, limits assumed, looked up): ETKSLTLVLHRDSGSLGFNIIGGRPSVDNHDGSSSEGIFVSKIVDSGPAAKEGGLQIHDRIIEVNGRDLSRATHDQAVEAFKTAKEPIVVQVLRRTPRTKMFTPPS

[11] = biological target: T7, LIN7A, O14910
T7 sequence (O14910 103-200, limits assumed, looked up): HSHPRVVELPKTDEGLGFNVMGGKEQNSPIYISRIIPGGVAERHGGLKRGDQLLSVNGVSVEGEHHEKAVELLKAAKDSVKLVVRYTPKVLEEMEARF

[12] = biological target: Inadl_5, Q8NI35
[13] = biological target: T8, HTRA4, P83105
T8 sequence (P83105 378-476, limits assumed, looked up): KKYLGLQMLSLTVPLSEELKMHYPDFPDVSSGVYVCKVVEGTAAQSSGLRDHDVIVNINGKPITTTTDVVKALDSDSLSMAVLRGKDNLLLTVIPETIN

[14] = biological target: DLG1_2, Q12959
[15] = biological target: GRIP2_4, Q9C0E4
[16] = biological target: LAP2, Q96RT1
[17] = biological target: T9, DFNB31_1, Q9P202
T9 sequence (Q9P202 135-233, limits assumed, looked up): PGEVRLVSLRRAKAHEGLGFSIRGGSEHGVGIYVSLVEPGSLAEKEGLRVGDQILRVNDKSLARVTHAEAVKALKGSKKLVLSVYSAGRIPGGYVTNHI

[18] = biological target: ARHGEF12, Q9NZN5-2
[19] = biological target: T10, RADIL, Q96JH8
T10 sequence (Q96JH8 971-1071, limits assumed, looked up): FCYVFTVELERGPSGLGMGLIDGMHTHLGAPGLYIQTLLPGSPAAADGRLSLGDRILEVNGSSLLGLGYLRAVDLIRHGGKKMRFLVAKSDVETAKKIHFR

[20] = biological target: PICK1, Q9NRD5
[21] = biological target: PARD3_3, Q8TEW0
[22] = biological target: MAST2, Q6P0Q8
[23] = biological target: T11, NHERF3_1, Q5T2W1
T11 sequence (Q5T2W1 4-100, limits assumed, looked up): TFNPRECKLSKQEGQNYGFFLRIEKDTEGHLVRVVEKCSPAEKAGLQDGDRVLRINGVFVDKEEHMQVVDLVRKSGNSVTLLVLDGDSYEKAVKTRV

[24] = biological target: T12, RHPN1, Q8TCX5
T12 sequence (Q8TCX5 508-602, limits assumed, looked up): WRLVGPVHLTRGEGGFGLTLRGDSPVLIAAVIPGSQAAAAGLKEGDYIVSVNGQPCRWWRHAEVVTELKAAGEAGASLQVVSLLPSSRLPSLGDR

[25] = plain residues with an end cap or a label only (N-terminal biotin on a linker: ttds)
[26] = plain residues with an end cap or a label only (N-terminal biotin on a linker: ado-ado)

Chain of IL16_1, Q14005 (Q14005 210-306): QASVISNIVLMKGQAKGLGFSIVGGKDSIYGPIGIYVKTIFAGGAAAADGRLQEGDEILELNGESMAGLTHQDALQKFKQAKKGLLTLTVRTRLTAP
Chain of LAP2, Q96RT1 (Q96RT1 other isoform, or with tags, fused parts or gaps): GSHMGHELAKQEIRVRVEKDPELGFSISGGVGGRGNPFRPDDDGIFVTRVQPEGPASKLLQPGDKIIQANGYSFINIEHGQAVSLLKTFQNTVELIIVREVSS
Chain of ARHGEF12, Q9NZN5-2 (Q9NZN5 other isoform, or with tags, fused parts or gaps): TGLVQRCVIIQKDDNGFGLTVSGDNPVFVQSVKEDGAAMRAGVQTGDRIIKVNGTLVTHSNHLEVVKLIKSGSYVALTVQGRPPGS
Chain of Inadl_2, Q8NI35 (Q8NI35 238-335): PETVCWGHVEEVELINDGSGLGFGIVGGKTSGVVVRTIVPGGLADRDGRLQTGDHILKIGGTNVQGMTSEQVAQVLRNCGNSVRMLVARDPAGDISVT
Chain of DLG1_2, Q12959 (Q12959 314-412): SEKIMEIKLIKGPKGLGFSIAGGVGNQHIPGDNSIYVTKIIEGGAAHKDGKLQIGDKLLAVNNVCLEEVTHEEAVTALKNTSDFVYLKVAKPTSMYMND
Chain of MAST2, Q6P0Q8 (Q6P0Q8 1099-1202): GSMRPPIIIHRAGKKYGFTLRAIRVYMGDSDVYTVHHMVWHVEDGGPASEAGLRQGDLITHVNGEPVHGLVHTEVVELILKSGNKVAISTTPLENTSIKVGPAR
Chain of GRIP2_4, Q9C0E4 (Q9C0E4 446-548): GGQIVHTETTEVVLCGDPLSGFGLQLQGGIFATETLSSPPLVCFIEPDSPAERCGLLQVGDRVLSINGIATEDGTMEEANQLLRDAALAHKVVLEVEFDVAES
Chain of Inadl_5, Q8NI35 (Q8NI35 673-780): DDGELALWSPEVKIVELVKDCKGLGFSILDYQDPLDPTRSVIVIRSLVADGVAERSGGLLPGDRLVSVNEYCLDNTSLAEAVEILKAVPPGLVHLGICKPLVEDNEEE
Chain of DLG4_1, P78352 (P78352 62-152): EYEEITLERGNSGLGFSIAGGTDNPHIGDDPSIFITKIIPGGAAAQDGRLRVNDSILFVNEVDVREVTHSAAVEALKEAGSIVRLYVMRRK
Chain of MAGI1_2, Q96QZ7 (Q96QZ7 456-580): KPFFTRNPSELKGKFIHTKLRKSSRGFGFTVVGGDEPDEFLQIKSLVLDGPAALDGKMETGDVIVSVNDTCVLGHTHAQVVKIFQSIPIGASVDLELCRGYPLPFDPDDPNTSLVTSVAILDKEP
Chain of PARD3_3, Q8TEW0 (Q8TEW0 582-685): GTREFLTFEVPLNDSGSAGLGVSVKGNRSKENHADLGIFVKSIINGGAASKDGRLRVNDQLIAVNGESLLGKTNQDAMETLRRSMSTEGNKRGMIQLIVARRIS
Chain of PICK1, Q9NRD5 (Q9NRD5 17-115): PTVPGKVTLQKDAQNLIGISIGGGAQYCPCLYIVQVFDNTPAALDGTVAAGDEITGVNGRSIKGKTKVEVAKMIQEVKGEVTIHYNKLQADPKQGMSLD

pKd [1, 25]: below the threshold
pKd [2, 25]: 4.65
pKd [3, 25]: 3.9
pKd [4, 25]: below the threshold
pKd [5, 25]: below the threshold
pKd [6, 25]: below the threshold
pKd [7, 25]: below the threshold
pKd [8, 25]: below the threshold
pKd [9, 25]: below the threshold
pKd [10, 25]: 4.18
pKd [11, 25]: below the threshold
pKd [12, 25]: below the threshold
pKd [13, 25]: below the threshold
pKd [14, 25]: 4.85
pKd [15, 25]: below the threshold
pKd [16, 25]: 3.48
pKd [17, 25]: 4.24
pKd [18, 25]: 3.91
pKd [19, 25]: 3.69
pKd [20, 25]: below the threshold
pKd [21, 25]: 3.91
pKd [22, 25]: 4.69
pKd [23, 25]: 5.08
pKd [24, 25]: 4.68
Binder: QFQYAKESYI [TAGAP, Q8N103]

pKd [1, 26]: below the threshold
pKd [2, 26]: below the threshold
pKd [3, 26]: below the threshold
pKd [4, 26]: below the threshold
pKd [5, 26]: below the threshold
pKd [6, 26]: below the threshold
pKd [7, 26]: below the threshold
pKd [8, 26]: below the threshold
pKd [9, 26]: below the threshold
pKd [10, 26]: below the threshold
pKd [11, 26]: below the threshold
pKd [12, 26]: below the threshold
pKd [13, 26]: 3.7
pKd [14, 26]: 3.97
pKd [15, 26]: below the threshold
pKd [16, 26]: below the threshold
pKd [17, 26]: 4.33
pKd [18, 26]: 3.92
pKd [19, 26]: below the threshold
pKd [20, 26]: 3.99
pKd [21, 26]: below the threshold
pKd [22, 26]: 4.03
pKd [23, 26]: 3.66
pKd [24, 26]: below the threshold
Binder: GKKSVKHSKI [ACOT6, Q3I5F7]

pKd [1, 25]: below the threshold
pKd [2, 25]: below the threshold
pKd [3, 25]: below the threshold
pKd [4, 25]: 3.94
pKd [5, 25]: below the threshold
pKd [6, 25]: below the threshold
pKd [7, 25]: below the threshold
pKd [8, 25]: below the threshold
pKd [9, 25]: below the threshold
pKd [10, 25]: below the threshold
pKd [11, 25]: below the threshold
pKd [12, 25]: below the threshold
pKd [13, 25]: below the threshold
pKd [14, 25]: below the threshold
pKd [15, 25]: below the threshold
pKd [16, 25]: 4.53
pKd [17, 25]: 4.28
pKd [18, 25]: 4.2
pKd [19, 25]: below the threshold
pKd [20, 25]: below the threshold
pKd [21, 25]: below the threshold
pKd [22, 25]: 6.04
pKd [23, 25]: 3.66
pKd [24, 25]: 4.46
Binder: NQLAWFDTDL [CTNNB1, P35222]
